From the supplement of paper PMC12042874
± gives the uncertainty stated by the source.

Experiment: amyloid nucleation score (Sup35N fusion, yeast selection) (log enrichment); library NNK2; higher = more nucleation; inactive = no reads after selection
How it was run: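 The nucleation score equals the log enrichment of output over input reads from DiMSum, centred on the mode score of non-aggregating sequences. It was computed only for sequences with 100 or more input reads. The reads came from Illumina sequencing of plasmid inserts from psi-negative yeast expressing Sup35N fused to peptides of 20 random codons, induced with 100 μM copper sulfate for 24 hours and grown 7 days at 30°C without adenine and uracil.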

Row | Substance | amyloid nucleation score
1 | TLGKVGHYRRNNNMPVARFD | -0.11 ± 0.74
2 | KMWIRLLRSEIPKCVGLTVS | 0.66 ± 0.23
3 | RGTVVTGF | 1.3 ± 0.44
4 | ELFRDNTGSSVVGNSRSSDA | 0.438 ± 0.17
5 | QKRRDFVVHCIRELWFYEHD | inactive
6 | CFNSTDN | inactive
7 | AEYIWWMVPVMKELVNEV | 0.362 ± 0.38
8 | FLIFTTLLYCMVDMHAGTTF | -1.77 ± 0.78
9 | VYRYIVIYPFVKWHKTDRFC | -0.805 ± 0.33
10 | YKLTGLDYKWASLNATWETQ | inactive
11 | RDMWKVNHGNTACIGSYRSV | 0.671 ± 0.35
12 | TLIGKFRTNNFRSMVDAESK | -0.59 ± 0.63
13 | PVRGE | 0.089 ± 0.8
14 | IRGCLNMFWLKKWDLPRLYF | -0.327 ± 0.63
15 | ICLVRWDMKSRVDGTSGM | 5.194 ± 0.037
16 | NYLYHLPYLRTSVLRRLRPV | 0.426 ± 0.3
17 | LTSFGDEC | -0.153 ± 1.1
18 | NLCSKRRNL | -0.927 ± 0.78
19 | VYNFSFSNSNVK | 6.669 ± 0.047
20 | DSAGASFNSCCGAE | 0.122 ± 1.1
21 | GDTCELCSVCQVNGV | 1.15 ± 0.17
22 | LRYVVNPF | -0.979 ± 0.37
23 | NYIVVARFYSRVVFFRV | inactive
24 | DMLVDYSIKDDRVYKVRLPM | -1.61 ± 0.62
25 | FHRRMFLCAVWLLRLTIVRQ | 0.492 ± 0.39
26 | TGVCPR | -0.674 ± 0.5

Row | Substance | amyloid nucleation score
27 | PLWCSAGALLYWYKYPWFWL | -0.332 ± 0.63
28 | GGVYASKYLCGYIKLSLKAS | -0.154 ± 0.3
29 | PYTFQYY | -0.549 ± 0.26
30 | YLKDPTFMGVNAFCVVLHFV | 6.01 ± 0.077
31 | YKCDVICCFGIWVLMFEN | 5.25 ± 0.074
32 | EKLWIMLTLICNIVRSPSYK | -0.515 ± 1.1
33 | YRGYAPIYLHLRSSYVPVAL | -0.319 ± 0.35
34 | LCRYTCSSLSVYLNNMILCG | 1.33 ± 0.13
35 | ARLLSG | 0.626 ± 0.5
36 | SLNKNINRYFGFWYPDSPLL | -1.22 ± 0.78
37 | CFTNIYRKGMMCYGPFTAMT | -0.214 ± 1.1
38 | LSLLVSLTRTMFNLNNTCTA | -0.17 ± 0.65
39 | SAKSNGVQ | 1.16 ± 0.32
40 | SLLWFKTVSLLRYNQF | -0.363 ± 0.65
41 | CARVMLFIMSEMIEFTFYGL | 2.89 ± 0.14
42 | LPVHANNGVNMFILIVPPGS | 5.948 ± 0.051
43 | YVDGFYNGERWRLVLHVWDL | -0.598 ± 0.39
44 | QMVGWSMYWIKVMRISA | 0.105 ± 1.1
45 | FTFILLGYVWRLLMYIPGMR | 0.236 ± 1.1
46 | VGSSHQSLEATKWGVVVLCR | 6.569 ± 0.049
47 | ASRKSLPEWLWIAWRHASGT | 1.29 ± 0.15
48 | LYGHSVNMVV | -0.224 ± 0.39
49 | LIGYI | 1.96 ± 0.11
50 | ERSVDYSLTL | -0.43 ± 0.45
51 | SSGLGTSVGSGILNSRDKDG | 0.434 ± 0.51
52 | KDNLDQYFTERRGWWLCEVV | -0.043 ± 0.5

Row | Substance | amyloid nucleation score
53 | DLYNCMHWQHVEYIMLLHGL | -0.846 ± 0.35
54 | SCVMGYKEVAFL | -0.081 ± 0.34
55 | VLYSRVLDGRESTNLGRL | inactive
56 | NVRDSYVNNCMTKGPRLNGV | -0.686 ± 0.34
57 | FSRLTGN | -0.883 ± 0.54
58 | SSYDLITIKEFIKSGRVK | -0.119 ± 0.35
59 | MYVDLKLSYNHSPATLW | 5.22 ± 0.061
60 | PYLGRFFSCLYTEWDTP | inactive
61 | ANGLVPYVTFLVLYALHTGT | 1.41 ± 0.38
62 | NREANLDDWLGRGQFSMIWW | -0.287 ± 0.79
63 | RSHLSTLEMSTSIGKGNPNY | 0.685 ± 0.56
64 | GDIMKCSRCSATLGEPMKRC | 0.218 ± 1.1
65 | PRVVYNFLNWGIGFYFVVDD | 7.161 ± 0.027
66 | LNFFNDR | inactive
67 | HMGLLFKWAYTYRIAWGKLR | -0.451 ± 0.79
68 | FDFRNGCGNTKVEFSMHRSG | 2.86 ± 0.21
69 | HLPFMHPRPANLSHNKTSVS | -0.766 ± 0.4
70 | LANYYTDSVRPSCGY | -0.022 ± 0.55
71 | YFIVVFMLSVNKT | 0.06 ± 0.54
72 | VVNVVSGYGAE | 0.619 ± 0.19
73 | RISRFMPCSRS | 1.11 ± 0.52
74 | RLSENFLRWSDVTIQSRLFG | 2.49 ± 0.15
75 | RTLHSLWHNAT | 0.906 ± 0.35
76 | CFRLD | inactive
77 | LNNLLS | 0.315 ± 0.46
78 | CSNSFLI | -0.868 ± 1.1

Row | Substance | amyloid nucleation score
79 | DTILWRSSHAEGTEAWHMGF | 1.28 ± 0.38
80 | STYRSASMVQVGRLVHGNQW | 5.38 ± 0.063
81 | KHILGQTWHSHCWFHTFEGV | 2.26 ± 0.22
82 | RIRASKPVFKAFLTPGSYLF | -1.87 ± 1
83 | YDYNCRDVWIWHA | -0.184 ± 0.63
84 | DFISCVLFSLFFRTLSRKGH | -0.679 ± 0.64
85 | GLVNSTPRKRKLFKGDAVHS | 0.321 ± 0.48
86 | VTTVRSPILLTLRTVPF | 0.425 ± 0.38
87 | PFCPFSEAVWMSTITLQHEG | -0.054 ± 0.32
88 | DSCGLCRYGGEMFRKFKFIS | inactive
89 | TFGRRATDNAASMPVSMRGR | 0.424 ± 0.64
90 | RVGVIFRKYWSFRYFSCKEN | -0.59 ± 1.1
91 | GGSLPMFWKIMPGRHCGK | -0.019 ± 0.32
92 | IYMDLLQNQSIR | -1.27 ± 1.1
93 | DGFMLMFFTITIRFPNALQV | inactive
94 | LRVWYDSSAVDMLNVLMSFP | 5.737 ± 0.032
95 | RSDVTLDNIQMWA | -1.38 ± 0.64
96 | YFNFDL | -0.313 ± 0.76
97 | WDIYQVGGTMSLDVFVKV | -0.2 ± 0.3
98 | GGQDDVIGLRKSVMAENRVH | 0.537 ± 0.42
99 | NSRIL | inactive
100 | EDIWEMRSLHLWLSCSGWTD | 2.27 ± 0.15
101 | RYMGVMVYKAPPRRTWCGKV | -0.237 ± 0.41
102 | DPSGYHVSFHSGDGGCEYC | 2.71 ± 0.085
103 | VLFSHQDEGLWHIHVHF | 3.28 ± 0.052
104 | LVKKWVWLLCCYRISWGRLR | -0.346 ± 0.28

Row | Substance | amyloid nucleation score
105 | NIFRESEAERRALNKFYMSF | 0.04 ± 0.76
106 | VGVWTALTPCKVVFTSDRLS | 1.23 ± 0.4
107 | GCVGAVRRLEGSIVYEDRTL | 0.944 ± 0.25
108 | CLVINSIKVFYARVGTSYKF | 2.01 ± 0.19
109 | TLLDNRRGCVMSWRGFLWMR | -0.363 ± 0.65
110 | YNVMDVMYYAQKWLLWWSKV | -0.353 ± 0.41
111 | CRSNQNESLNGC | 0.436 ± 0.21
112 | LRPDYLERYFWLWHSTDKLF | -1.14 ± 0.49
113 | LYRFAMLLRLGARSVNMLGK | -0.573 ± 1.1
114 | VDANIHWTCNSG | 0.322 ± 0.38
115 | SHYCGLVCLELEIWLYP | 1.31 ± 0.18
116 | MMWLSARMQR | 6.727 ± 0.049
117 | WGSSFR | 0.592 ± 0.24
118 | MEGVAK | 0.331 ± 0.8
119 | CLLLRVTR | 0.015 ± 0.27
120 | YNTVVVPDVMTGRF | -0.599 ± 1
121 | FACIGGVLHAGGGVGAIGA | 0.69 ± 0.42
122 | TAMFPHVRYSDTSYPAKRAV | -0.947 ± 0.41
123 | GFIGNCYSFASLFGPMSHYV | -0.588 ± 1.1
124 | MWLSPRVVVFCRLIFHLLVG | -0.567 ± 1.1
125 | ISYHSVWDKLFFYVVDFYTS | -0.591 ± 1
126 | KAVSLPLVGGLC | -0.684 ± 0.34
127 | FWQSSLDSS | 0.213 ± 0.38
128 | GKDGTFRVVPRQEDRSAHWL | -0.464 ± 1.1
